Consider 1 molecule from US9187567 (PARKINSON S INSTITUTE, dated 2015).

Assay in all cases: 14-3-3 overlay (far-western) assay
Test [1] deals with T1, GFP tagged, full length LRRK2 Ser910Ala (human, UniProt Q5S007 1-2527).
T1 construct: mature; also called S910A; not shown: GFP tag, amino-terminal

Test [2] deals with T2, GFP tagged, full length LRRK2 Ser935Ala (human, UniProt Q5S007 1-2527).
T2 construct: mature; also called S935A; not shown: GFP tag, amino-terminal

Test [3] addresses T3, GFP tagged, full length LRRK2 Ser955Ala (human, UniProt Q5S007 1-2527).
T3 construct: mature; also called S955A; GFP-LRRK2-S955A; not shown: GFP tag, amino-terminal

Test [4] has as its target T4, GFP tagged, full length LRRK2 Ser973Ala (human, UniProt Q5S007 1-2527).
T4 construct: mature; also called S973A; GFP-LRRK2-S973A; not shown: GFP tag, amino-terminal

Test [5] deals with T5, GFP tagged, full length LRRK2 I2020T (human, UniProt Q5S007 1-2527).
T5 construct: mature; also called 12020T (so in the source); not shown: GFP tag, amino-terminal

The target of test [6] is T6, GFP tagged, full length LRRK2 from cells treated with 1 µM LRRK2-IN1 for 90 minutes (human, UniProt Q5S007 1-2527, Serines 910, 935, 955 and 973 dephosphorylated by LRRK2-IN1 treatment of the cells).
T6 construct: mature; Same polypeptide as m10; It differs only in phosphorylation state; also called LRRK2-IN1 treated LRRK2; not shown: GFP tag, amino-terminal
T6 sequence (Q5S007 whole entry): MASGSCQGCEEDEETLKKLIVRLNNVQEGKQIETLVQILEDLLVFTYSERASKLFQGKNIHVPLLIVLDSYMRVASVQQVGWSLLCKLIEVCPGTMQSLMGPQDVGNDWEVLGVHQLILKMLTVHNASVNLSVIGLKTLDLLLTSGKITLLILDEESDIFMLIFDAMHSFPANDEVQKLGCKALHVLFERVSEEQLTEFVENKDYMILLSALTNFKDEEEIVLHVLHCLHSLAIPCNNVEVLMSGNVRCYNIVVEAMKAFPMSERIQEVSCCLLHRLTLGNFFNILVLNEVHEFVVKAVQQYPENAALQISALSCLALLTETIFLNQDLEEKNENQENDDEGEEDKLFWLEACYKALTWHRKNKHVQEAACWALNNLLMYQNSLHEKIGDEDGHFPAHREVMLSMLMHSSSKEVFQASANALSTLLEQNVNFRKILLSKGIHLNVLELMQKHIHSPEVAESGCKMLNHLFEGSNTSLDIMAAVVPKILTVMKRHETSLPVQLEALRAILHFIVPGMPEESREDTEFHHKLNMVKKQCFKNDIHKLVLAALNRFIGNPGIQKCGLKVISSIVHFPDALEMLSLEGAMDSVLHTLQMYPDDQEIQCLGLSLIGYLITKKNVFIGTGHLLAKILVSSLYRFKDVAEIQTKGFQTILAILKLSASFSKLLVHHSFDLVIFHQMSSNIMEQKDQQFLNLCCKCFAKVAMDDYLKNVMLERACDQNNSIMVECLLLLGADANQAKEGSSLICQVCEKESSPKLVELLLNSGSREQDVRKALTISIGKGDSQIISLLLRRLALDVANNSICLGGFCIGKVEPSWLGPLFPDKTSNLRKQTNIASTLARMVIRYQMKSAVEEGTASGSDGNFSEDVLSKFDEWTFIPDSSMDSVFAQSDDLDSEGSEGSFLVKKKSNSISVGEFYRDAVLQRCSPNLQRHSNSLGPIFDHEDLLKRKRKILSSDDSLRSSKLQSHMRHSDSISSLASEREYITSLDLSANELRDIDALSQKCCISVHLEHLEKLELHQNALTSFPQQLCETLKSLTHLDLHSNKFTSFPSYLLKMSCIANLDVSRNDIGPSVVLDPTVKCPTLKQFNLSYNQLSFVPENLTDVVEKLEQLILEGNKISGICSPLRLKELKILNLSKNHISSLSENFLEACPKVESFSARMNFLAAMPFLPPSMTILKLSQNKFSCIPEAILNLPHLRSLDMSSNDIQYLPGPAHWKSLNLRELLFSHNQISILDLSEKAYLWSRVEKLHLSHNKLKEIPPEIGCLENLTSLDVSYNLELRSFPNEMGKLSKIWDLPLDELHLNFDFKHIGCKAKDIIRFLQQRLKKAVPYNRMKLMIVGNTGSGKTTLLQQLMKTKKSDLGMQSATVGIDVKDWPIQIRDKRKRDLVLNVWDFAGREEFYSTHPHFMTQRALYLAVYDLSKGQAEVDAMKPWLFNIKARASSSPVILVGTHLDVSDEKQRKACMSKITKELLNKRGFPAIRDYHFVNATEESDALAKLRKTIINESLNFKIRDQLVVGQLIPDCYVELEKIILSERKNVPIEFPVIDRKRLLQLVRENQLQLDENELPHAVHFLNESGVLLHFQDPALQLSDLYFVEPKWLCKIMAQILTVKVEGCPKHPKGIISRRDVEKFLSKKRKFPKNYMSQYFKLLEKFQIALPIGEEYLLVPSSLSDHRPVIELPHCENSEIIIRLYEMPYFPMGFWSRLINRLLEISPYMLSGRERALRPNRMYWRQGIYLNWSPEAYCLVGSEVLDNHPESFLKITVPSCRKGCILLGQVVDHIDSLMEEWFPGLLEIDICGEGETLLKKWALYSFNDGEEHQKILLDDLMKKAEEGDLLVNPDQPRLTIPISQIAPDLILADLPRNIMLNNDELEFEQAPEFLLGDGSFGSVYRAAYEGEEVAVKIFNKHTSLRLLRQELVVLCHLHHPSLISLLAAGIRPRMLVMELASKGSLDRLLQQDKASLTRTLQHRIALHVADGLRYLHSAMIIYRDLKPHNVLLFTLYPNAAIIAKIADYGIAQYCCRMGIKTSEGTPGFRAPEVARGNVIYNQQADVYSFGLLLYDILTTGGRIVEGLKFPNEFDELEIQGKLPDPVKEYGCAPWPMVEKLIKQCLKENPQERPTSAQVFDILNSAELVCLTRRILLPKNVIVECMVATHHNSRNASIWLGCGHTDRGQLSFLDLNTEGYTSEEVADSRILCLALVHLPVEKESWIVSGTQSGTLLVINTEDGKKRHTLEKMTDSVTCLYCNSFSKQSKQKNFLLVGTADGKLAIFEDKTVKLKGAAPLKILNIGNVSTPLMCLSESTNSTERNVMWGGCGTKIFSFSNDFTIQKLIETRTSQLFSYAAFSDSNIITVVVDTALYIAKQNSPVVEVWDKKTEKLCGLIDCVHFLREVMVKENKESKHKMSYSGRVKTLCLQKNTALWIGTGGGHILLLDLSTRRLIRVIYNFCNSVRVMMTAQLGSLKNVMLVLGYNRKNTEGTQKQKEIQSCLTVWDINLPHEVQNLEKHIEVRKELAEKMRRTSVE

T2 sequence (Q5S007 whole entry S935A): as the sequence (Q5S007 whole entry) above, with S935A counted along it
T1 sequence (Q5S007 whole entry S910A): as the sequence (Q5S007 whole entry) above, with S910A counted along it
T3 sequence (Q5S007 whole entry S955A): as the sequence (Q5S007 whole entry) above, with S955A counted along it
T5 sequence (Q5S007 whole entry I2020T): as the sequence (Q5S007 whole entry) above, with I2020T counted along it
T4 sequence (Q5S007 whole entry S973A): as the sequence (Q5S007 whole entry) above, with S973A counted along it

B1: LiCOR Dyelight labelled 14-3-3 protein (recombinant, His tagged BMH1) (other, UniProt P29311 1-267, looked up)
chain: MSTSREDSVYLAKLAEQAERYEEMVENMKTVASSGQELSVEERNLLSVAYKNVIGARRASWRIVSSIEQKEESKEKSEHQVELICSYRSKIETELTKISDDILSVLDSHLIPSATTGESKVFYYKMKGDYHRYLAEFSSGDAREKATNASLEAYKTASEIATTELPPTHPIRLGLALNFSVFYYEIQNSPDKACHLAKQAFDDAIAELDTLSEESYKDSTLIMQLLRDNLTLWTSDMSESGQAEDQQQQQQHQQQQPPAAAEGEAPK
modifications: fluorescent dye label (LiCOR Dyelight)
notes: also called fluorescent dye labeled recombinant 14-3-3; not shown: His tag
On to B1, for which the binding result in test [1] is given as “no binding”; in test [2], “no binding”; in test [3] it was “binds”; in test [4], “binds”; in test [5], “no binding”; in test [6] it was “binds”.
